Assay results as given in patent US20120121597A1 (ROCKEFELLER UNIVERSITY, published 2012).

Assays:
[1] = molecular target: T1, human soluble CD4 (sCD4) (human, UniProt P01730 26-396); experiment: competition ELISA on plate-coated sCD4; competitor: fixed concentration of HRP-labeled iMab
T1 construct: also called human CD4

[2] = molecular target: T1, human soluble CD4 (sCD4); experiment: SPR, Biacore-3000
[3] = molecular target: CD4 receptor on the target cells of the virus neutralization assay (human, UniProt P01730 26-458); experiment: cell-based or functional assay

B1: m36 (other)
VH: QVQLVQSGGGLVQPGGSLRLSCAASAFDFSDYEMSWVRQAPGKGLEWIGEINDSGNTIYNPSLKSRVTISRDNSKNTLYLQMNTLRAEDTAIYYCAIYGGNSGGEYWGQGTLVTVSS
notes: also called m36 polypeptide
binding result [1]: no binding

B2: iMab mutant E95A (CDR-H3 ARAKDNYATGAWFA) (antibody, V domains shown)
VH: QVQLQQSGPEVVKPGASVKMSCKASGYTFTSYVIHWVRQKPGQGLDWIGYINPYNDGTDYDEKFKGKATLTSDTSTSTAYMELSSLRSEDTAVYYCARAKDNYATGAWFAYWGQGTLVTVSS
VL: DIVMTQSPDSLAVSLGERVTMNCKSSQSLLYSTNQKNYLAWYQQKPGQSPKLLIYWASTRESGVPDRFSGSGSGTDFTLTISSVQAEDVAVYYCQQYYSYRTFGGGTKLEIK
Kd [2]: 7.7 nM | koff [2]: 0.0048 s⁻¹ | kon [2]: 620000 M⁻¹ s⁻¹

B3: iMabm36 fusion antibody (bispecific antibody, human IgG1, kappa)
heavy: QVQLQQSGPEVVKPGASVKMSCKASGYTFTSYVIHWVRQKPGQGLDWIGYINPYNDGTDYDEKFKGKATLTSDTSTSTAYMELSSLRSEDTAVYYCAREKDNYATGAWFAYWGQGTLVTVSSASTKGPSVFPLAPSSKSTSGGTAALGCLVKDYFPEPVTVSWNSGALTSGVHTFPAVLQSSGLYSLSSVVTVPSSSLGTQTYICNVNHKPSNTKVDKKVEPKSCDKTHTCPPCPAPEFEGGPSVFLFPPKPKDTLMISRTPEVTCVVVDVSHEDPEVKFNWYVDGVEVHNAKTKPREEQYNSTYRVVSVLTVLHQDWLNGKEYKCKVSNKALPASIEKTISKAKGQPREPQVYTLPPSRDELTKNQVSLTCLVKGFYPSDIAVEWESNGQPENNYKTTPPVLDSDGSFFLYSKLTVDKSRWQQGNVFSCSVLHEALHSHYTQKSLSLSPGKLEGGGGSGGGGSGGGGSGQVQLVQSGGGLVQPGGSLRLSCAASAFDFSDYEMSWVRQAPGKGLEWIGEINDSGNTIYNPSLKSRVTISRDNSKNTLYLQMNTLRAEDTAIYYCAIYGGNSGGEYWGQGTLVTVSS
light: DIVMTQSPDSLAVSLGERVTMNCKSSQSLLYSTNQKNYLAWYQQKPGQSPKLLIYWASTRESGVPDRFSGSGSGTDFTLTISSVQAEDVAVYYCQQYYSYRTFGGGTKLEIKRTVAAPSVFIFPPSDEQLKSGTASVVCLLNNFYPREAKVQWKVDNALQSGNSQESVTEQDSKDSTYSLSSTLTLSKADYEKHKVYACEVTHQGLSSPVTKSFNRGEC
IC50 (read off the curve), virus G23 [Virus (G23] [3]: ~0.2 nM
